Results taken from publication PMC6411775.
“And” between values parts separate entries of the source, which are not always exact repeats. Equal values may be shown once.

Biological target: full length human histone 3 lysine 4 demethylase KDM5B, His6 tag cleaved (human) (UniProt Q9UGL1)
Assay: SPR; KDM5B immobilised by amine coupling (490 RU and 975 RU); NCPs injected in eight concentrations (two-fold dilutions from 250 nM); 15 °C; 20 mM Hepes, 300 mM NaCl, 1 mM EDTA, 0.005% Tween 20, 1 mM DTT; steady state, 1:1 model; apparent

UniProt Q9UGL1, sequence (Q9UGL1 whole entry): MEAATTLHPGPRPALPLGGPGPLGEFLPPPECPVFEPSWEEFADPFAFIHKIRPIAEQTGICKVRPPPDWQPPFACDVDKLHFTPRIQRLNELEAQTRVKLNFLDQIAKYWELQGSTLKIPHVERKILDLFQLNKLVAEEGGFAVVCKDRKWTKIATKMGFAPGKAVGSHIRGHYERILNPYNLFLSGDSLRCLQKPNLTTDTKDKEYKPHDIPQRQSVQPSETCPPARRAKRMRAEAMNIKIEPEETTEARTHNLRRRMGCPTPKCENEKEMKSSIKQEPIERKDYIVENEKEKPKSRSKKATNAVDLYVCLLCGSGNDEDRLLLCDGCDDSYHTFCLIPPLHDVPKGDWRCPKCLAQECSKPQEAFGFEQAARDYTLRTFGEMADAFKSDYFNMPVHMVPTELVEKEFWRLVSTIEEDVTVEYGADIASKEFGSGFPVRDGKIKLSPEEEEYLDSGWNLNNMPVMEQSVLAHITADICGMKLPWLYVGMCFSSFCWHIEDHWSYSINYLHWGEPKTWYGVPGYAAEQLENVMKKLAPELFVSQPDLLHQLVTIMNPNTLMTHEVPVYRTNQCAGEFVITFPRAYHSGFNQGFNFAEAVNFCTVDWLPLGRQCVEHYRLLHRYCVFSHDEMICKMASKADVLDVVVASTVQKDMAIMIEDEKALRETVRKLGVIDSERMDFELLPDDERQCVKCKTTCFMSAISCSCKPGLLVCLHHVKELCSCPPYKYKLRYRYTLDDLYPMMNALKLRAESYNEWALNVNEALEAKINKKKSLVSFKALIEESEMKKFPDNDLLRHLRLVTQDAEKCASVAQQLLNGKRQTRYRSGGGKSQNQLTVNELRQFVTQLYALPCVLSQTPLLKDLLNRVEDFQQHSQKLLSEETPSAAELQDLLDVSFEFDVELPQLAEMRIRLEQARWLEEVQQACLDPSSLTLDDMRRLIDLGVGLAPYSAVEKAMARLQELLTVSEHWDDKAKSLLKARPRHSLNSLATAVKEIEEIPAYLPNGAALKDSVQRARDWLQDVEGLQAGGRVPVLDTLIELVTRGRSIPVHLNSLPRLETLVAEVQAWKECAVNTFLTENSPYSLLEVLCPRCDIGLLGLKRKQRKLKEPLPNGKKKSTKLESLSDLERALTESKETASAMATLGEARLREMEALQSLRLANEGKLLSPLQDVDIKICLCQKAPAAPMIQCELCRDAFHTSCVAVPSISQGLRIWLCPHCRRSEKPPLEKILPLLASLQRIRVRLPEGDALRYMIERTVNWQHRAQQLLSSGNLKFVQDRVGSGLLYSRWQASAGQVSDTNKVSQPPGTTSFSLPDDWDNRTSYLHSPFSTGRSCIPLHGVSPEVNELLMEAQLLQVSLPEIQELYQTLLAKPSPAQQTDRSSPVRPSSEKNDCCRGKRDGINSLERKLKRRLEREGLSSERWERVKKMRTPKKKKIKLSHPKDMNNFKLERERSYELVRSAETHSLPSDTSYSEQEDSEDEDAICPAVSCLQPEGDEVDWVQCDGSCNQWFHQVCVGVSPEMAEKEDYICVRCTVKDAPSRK

Kd: 20.3 nM and 27.7 nM
Substance: Nucleosome core particles (NCPs), recombinant Xenopus laevis histone octamer on the Widom 601 DNA (complex)
